Experimental data from the Human Domainome abundance scans (Beltran et al. 2025).

B1: Steroid hormone receptor ERR2, residues 100 to 176; numbered along this chain, O95718 (parent)
chain: KRLCLVCGDIASGYHYGVASCEACKAFFKRTIQGNIEYSCPATNECEITKRRRKSCQACRFMKCLKVGMLKEGVRLD

Variants of: B1
Assay: abundance fitness (aPCA) (normalised: wild type 0, dead -1); higher = more abundant; growth selection in yeast, the domain comes from the species named
Conditions: Homo sapiens

Abundance fitness: each site, then its substitutions
T31: R -0.678, L -0.83, W -0.925, C -0.423, G -0.484, D -0.724, F -1.1, M -0.223, N -0.546, E -0.744, A -0.353, V -0.223, P -0.951, H -0.655, I -0.295, S -0.175
N35: R -0.047, P 0.012, A 0.069, K 0.027, L -0.298, D 0.111, G 0.271, W -0.298, C -0.12, V -0.133, M -0.317, I -0.593, Q 0.05, H 0.031, E 0.157, S -0.129, F -0.275, Y -0.178, T -0.017
F27: D -0.751, H -0.765, N -1.01, L -0.204, C -0.119, S -0.746, M -0.473, A -0.621, P -0.573, R -0.715, W -0.578, G -0.745, V -0.535, I -0.434, Q -0.945, K -0.506
S39: L 0.283, W 0.22, V 0.294, D 0.441, I 0.19, P 0.089, F 0.374, M 0.39, N 0.397, E 0.303, T 0.254, K 0.305, H 0.103, G 0.19, A 0.319, Y 0.283, C 0.189
A26: K -0.229, C -0.046, M -0.116, S -0.338, Q 0.051, P -0.569, L -0.135, F -0.467, D 0.035, I -0.334, H 0.095, W -0.075, N -0.504, Y -0.561, E 0.162, G 0.121, V 0.114
P41: Q -0.045, D 0.213, W -0.253, K -0.037, M -0.161, N 0.123, Y 0.018, E 0.057, C -0.045, H -0.028, L -0.134, A 0.056, S -0.137, I -0.071, F -0.214, T -0.147, R -0.158, G 0.128, V 0.093
C24: V -0.906, G -0.903, I -0.707, S -0.869, D 0.265, L -0.787, Q -0.685, P -1.13, M -0.859, R -0.744, A -0.897, K -1.07, N -0.939, Y -0.837, T -1, W -0.784
I32: M -0.47, D -0.642, T -0.222, G -0.344, C -0.803, A -0.21, F -0.115, V 0.055, N -0.568, Q -0.422, P -0.589, E -0.148, S -0.184, K -0.337, L -0.362
F28: C -0.843, P -0.725, H -0.748, V -0.315, R -0.757, L -0.413, Q -0.761, K -0.694, A -0.321, S -0.832, G -0.687, N -0.922, T -0.664, W 0.167, E -0.638, Y -0.78
Y38: C -0.293, M -0.548, Q -0.841, L -0.398, T -0.636, K -0.725, R -0.347, V -0.541, D -0.979, F -0.037, G -0.394, W 0.097, S -0.518, P -0.547, H -0.196, A -0.554
